Experimental data: the supplement of paper PMC11316812
± gives the standard deviation of the averaged measurements.

How the values were obtained:
[1] = tested on: MCF7; assay: percentage of EdU-negative (G0-arrested) nuclei per well, 72 h; higher = more G0 arrest; settings: reference: sequence is the full UniProt precursor, the tested protein was the secreted form or ectodomain
[2] = tested on: hTERT-HMEC; assay: as above; settings: reference: sequence is the full UniProt precursor, the tested protein was the secreted form or ectodomain
[3] = protein concentration 0.0211825 µM
[4] = protein concentration 0.211825 µM
[5] = protein concentration 0.0225 µM
[6] = protein concentration 0.0294286 µM
[7] = protein concentration 0.294286 µM
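Note: secreted proteins added to cultured cells, EdU pulse at the end, nuclei found by Hoechst imaging, EdU status from nuclear versus surrounding ring intensity ratio, PBS as neutral control.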

| Sequence | percentage of EdU-negative [1, 5] | percentage of EdU-negative ([1]; protein concentration 0.225 µM) | percentage of EdU-negative [2, 5] | percentage of EdU-negative ([2]; protein concentration 0.225 µM) | other results |
| --- | --- | --- | --- | --- | --- |
| MARVLGAPVALGLWSLCWSLAIATPLPPTSAHGNVAEGETKPDPDVTERCSDGWSFDATTLDDNGTMLFFKGEFVWKSHKWDRELISERWKNFPSPVDAAFRQGHNSVFLIKGDKVWVYPPEKKEKGYPKLLQDEFPGIPSPLDAAVECHRGECQAEGVLFFQGDREWFWDLATGTMKERSWPAVGNCSSALRWLGRYYCFQGNQFLRFDPVRGEVPPRYPRDVRDYFMPCPGRGHGHRNGTGHGNSTHHGPEYMRCSPHLVLSALTSDNHGATYAFSGTHYWRLDTSRDGWHSWPIAHQWPQGPSAVDAAFSWEEKLYLVQGTQVYVFLTKGGYTLVSGYPKRLEKEVGTPHGIILDSVDAAFICPGSSRLHIMAGRRLWWLDLKSGAQATWTELPWPHEKVDGALCMEKSLGPNSCSANGPGLYLIHGPNLYCYSDVEKLNAAKALPQPQNVTSLLGCTH | – | – | – | – | percentage of EdU-negative [1, 3]: 26.5 ± 0.3%; percentage of EdU-negative [1, 4]: 26.7 ± 0.95%; percentage of EdU-negative [2, 3]: 5.25 ± 0.85%; percentage of EdU-negative [2, 4]: 6.11 ± 0.9% |
| MARVLKAAAANAVGLFSRLQAPIPTVRASSTSQPLDQVTGSVWNLGRLNHVAIAVPDLEKAAAFYKNILGAQVSEAVPLPEHGVSVVFVNLGNTKMELLHPLGRDSPIAGFLQKNKAGGMHHICIEVDNINAAVMDLKKKKIRSLSEEVKIGAHGKPVIFLHPKDCGGVLVELEQA [Q96PE7] | 23.93 ± 0.19% | 23.1 ± 1.4% | 5.15 ± 0.63% | 6.08 ± 0.26% | – |
| MARYMLLLLLAVWVLTGELWPGAEARAAPYGVRLCGREFIRAVIFTCGGSRWRRSDILAHEAMGDTFPDADADEDSLAGELDEAMGSSEWLALTKSPQAFYRGRPSWQGTPGVLRGSRDVLAGLSSSCCKWGCSKSEISSLC [Q8WXF3] | 26.3 ± 1.9% | 26.3 ± 0.94% | 4.41 ± 0.39% | 5.85 ± 0.42% | – |
| MASEIHMTGPMCLIENTNGRLMANPEALKILSAITQPMVVVAIVGLYRTGKSYLMNKLAGKKKGFSLGSTVQSHTKGIWMWCVPHPKKPGHILVLLDTEGLGDVEKGDNQNDSWIFALAVLLSSTFVYNSIGTINQQAMDQLYYVTELTHRIRSKSSPDENENEVEDSADFVSFFPDFVWTLRDFSLDLEADGQPLTPDEYLTYSLKLKKGTSQKDETFNLPRLCIRKFFPKKKCFVFDRPVHRRKLAQLEKLQDEELDPEFVQQVADFCSYIFSNSKTKTLSGGIQVNGPRLESLVLTYVNAISSGDLPCMENAVLALAQIENSAAVQKAIAHYEQQMGQKVQLPTETLQELLDLHRDSEREAIEVFIRSSFKDVDHLFQKELAAQLEKKRDDFCKQNQEASSDRCSALLQVIFSPLEEEVKAGIYSKPGGYRLFVQKLQDLKKKYYEEPRKGIQAEEILQTYLKSKESMTDAILQTDQTLTEKEKEIEVERVKAESAQASAKMLQEMQRKNEQMMEQKERSYQEHLKQLTEKMENDRVQLLKEQERTLALKLQEQEQLLKEGFQKESRIMKNEIQDLQTKMRRRKACTIS | 26.5 ± 3.6% | 29.1 ± 1.2% | 4.44 ± 0.5% | 12.6 ± 1.4% | – |
| MASHSGPSTSVLFLFCCLGGWLASHTLPVRLLRPSDDVQKIVEELQSLSKMLLKDVEEEKGVLVSQNYTLPCLSPDAQPPNNIHSPAIRAYLKTIRQLDNKSVIDEIIEHLDKLIFQDAPETNISVPTDTHECKRFILTISQQFSECMDLALKSLTSGAQQATT [Q6EBC2] | 26.6 ± 1.1% | 24.9 ± 1.8% | 4.96 ± 0.56% | 5.69 ± 0.58% | – |
| MASLRVERAGGPRLPRTRVGRPAALRLLLLLGAVLNPHEALAQPLPTTGTPGSEGGTVKNYETAVQFCWNHYKDQMDPIEKDWCDWAMISRPYSTLRDCLEHFAELFDLGFPNPLAERIIFETHQIHFANCSLVQPTFSDPPEDVLLAMIIAPICLIPFLITLVVWRSKDSEAQA | 26.4 ± 3.1% | 23.7 ± 0.28% | 4.96 ± 0.83% | 5.12 ± 0.077% | – |
| MASPGCLLCVLGLLLCGAASLELSRPHGDTAKKPIIGILMQKCRNKVMKNYGRYYIAASYVKYLESAGARVVPVRLDLTEKDYEILFKSINGILFPGGSVDLRRSDYAKVAKIFYNLSIQSFDDGDYFPVWGTCLGFEELSLLISGECLLTATDTVDVAMPLNFTGGQLHSRMFQNFPTELLLSLAVEPLTANFHKWSLSVKNFTMNEKLKKFFNVLTTNTDGKIEFISTMEGYKYPVYGVQWHPEKAPYEWKNLDGISHAPNAVKTAFYLAEFFVNEARKNNHHFKSESEEEKALIYQFSPIYTGNISSFQQCYIFD | – | – | – | – | percentage of EdU-negative [1, 6]: 25 ± 0.49%; percentage of EdU-negative [1, 7]: 25.9 ± 2.2%; percentage of EdU-negative [2, 6]: 4.45 ± 0.47%; percentage of EdU-negative [2, 7]: 4.7 ± 0.28% |
